Key:
HeLa Kyoto [1] = assay: thermal stability score vs G1/S (z-score of summed log2 fold changes over temperatures); higher = more thermally stable than in G1/S
HeLa Kyoto [2] = assay: solubility change mitosis vs G1/S (difference of NP-40 vs SDS log2 ratios) (log2 ratio difference); higher = more soluble in mitosis
HeLa Kyoto [3] = assay: solubility in G1/S (NP-40 vs SDS abundance) (log2 ratio); higher = more soluble; details: cell cycle stage: G1/S
HeLa Kyoto [4] = assay: melting temperature (median over replicates), in situ; higher = more thermally stable
[5] = cell cycle stage: early G1 (4.5 h after nocodazole release)
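Wherever melting temperature (median over replicates), in situ is given: HeLa Kyoto cells synchronized by double thymidine or nocodazole block, proteins quantified by TMT10plex mass spectrometry, three independent biological replicates.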
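Wherever solubility change mitosis vs G1/S (difference of NP-40 vs SDS log2 ratios) is given: synchronized HeLa Kyoto cells (double thymidine block for G1/S, nocodazole release for mitosis), protein amounts in NP-40 versus SDS lysates quantified by mass spectrometry, three biological replicates.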
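Wherever solubility in G1/S (NP-40 vs SDS abundance) is given: HeLa Kyoto cells arrested at G1/S by double thymidine block, proteins quantified by TMT10plex mass spectrometry in mild NP-40 versus SDS extracts, three biological replicates.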
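Wherever thermal stability score vs G1/S (z-score of summed log2 fold changes over temperatures) is given: synchronized HeLa Kyoto cells, proteins quantified by TMT10plex mass spectrometry, three biological replicates, mitosis taken 0.5 h after nocodazole release, G1/S directly after double thymidine block.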

Sequence	thermal stability score (HeLa Kyoto [1]; [5])	thermal stability score (HeLa Kyoto [1]; cell cycle stage: mitosis)	solubility change mitosis (log2) (HeLa Kyoto [2])	solubility in G1/S (log2) (HeLa Kyoto [3])	melting temperature (HeLa Kyoto [4]; cell cycle stage: G1/S)	melting temperature (HeLa Kyoto [4]; cell cycle stage: mitosis)
MSRRYDSRTTIFSPEGRLYQVEYAMEAIGHAGTCLGILANDGVLLAAERRNIHKLLDEVFFSEKIYKLNEDMACSVAGITSDANVLTNELRLIAQRYLLQYQEPIPCEQLVTALCDIKQAYTQFGGKRPFGVSLLYIGWDKHYGFQLYQSDPSGNYGGWKATCIGNNSAAAVSMLKQDYKEGEMTLKSALALAIKVLNKTMDVSKLSAEKVEIATLTRENGKTVIRVLKQKEVEQLIKKHEEEEAKAEREKKEKEQKEKDK [PSMA4]	-0.647	-0.541	-0.0614	0.45	59.5 °C	60.5 °C
MSRSYNDELQFLEKINKNCWRIKKGFVPNMQVEGVFYVNDALEKLMFEELRNACRGGGVGGFLPAMKQIGNVAALPGIVHRSIGLPDVHSGYGFAIGNMAAFDMNDPEAVVSPGGVGFDINCGVRLLRTNLDESDVQPVKEQLAQAMFDHIPVGVGSKGVIPMNAKDLEEALEMGVDWSLREGYAWAEDKEHCEEYGRMLQADPNKVSARAKKRGLPQLGTLGAGNHYAEIQVVDEIFNEYAAKKMGIDHKGQVCVMIHSGSRGLGHQVATDALVAMEKAMKRDKIIVNDRQLACARIASPEGQDYLKGMAAAGNYAWVNRSSMTFLTRQAFAKVFNTTPDDLDLHVIYDVSHNIAKVEQHVVDGKERTLLVHRKGSTRAFPPHHPLIAVDYQLTGQPVLIGGTMGTCSYVLTGTEQGMTETFGTTCHGAGRALSRAKSRRNLDFQDVLDKLADMGIAIRVASPKLVMEEAPESYKNVTDVVNTCHDAGISKKAIKLRPIAVIKG [RTCB]	-2.97	-3.42	0.0881	0.171	53 °C	52.4 °C
MSRYLLPLSALGTVAGAAVLLKDYVTGGACPSKATIPGKTVIVTGANTGIGKQTALELARRGGNIILACRDMEKCEAAAKDIRGETLNHHVNARHLDLASLKSIREFAAKIIEEEERVDILINNAGVMRCPHWTTEDGFEMQFGVNHLGHFLLTNLLLDKLKASAPSRIINLSSLAHVAGHIDFDDLNWQTRKYNTKAAYCQSKLAIVLFTKELSRRLQGSGVTVNALHPGVARTELGRHTGIHGSTFSSTTLGPIFWLLVKSPELAAQPSTYLAVAEELADVSGKYFDGLKQKAPAPEAEDEEVARRLWAESARLVGLEAPSVREQPLPR [RDH13]	-0.911	-0.156	0.0735	0.415	51.1 °C	51.6 °C
MSSDASQGVITTPPPPSMPHKERYFDRINENDPEYIRERNMSPDLRQDFNMMEQRKRVTQILQSPAFREDLECLIQEQMKKGHNPTGLLALQQIADYIMANSFSGFSSPPLSLGMVTPINDLPGADTSSYVKGEKLTRCKLASLYRLVDLFGWAHLANTYISVRISKEQDHIIIIPRGLSFSEATASNLVKVNIIGEVVDQGSTNLKIDHTGFSPHAAIYSTRPDVKCVIHIHTLATAAVSSMKCGILPISQESLLLGDVAYYDYQGSLEEQEERIQLQKVLGPSCKVLVLRNHGVVALGETLEEAFHYIFNVQLACEIQVQALAGAGGVDNLHVLDFQKYKAFTYTVAASGGGGVNMGSHQKWKVGEIEFEGLMRTLDNLGYRTGYAYRHPLIREKPRHKSDVEIPATVTAFSFEDDTVPLSPLKYMAQRQQREKTRWLNSPNTYMKVNVPEESRNGETSPRTKITWMKAEDSSKVSGGTPIKIEDPNQFVPLNTNPNEVLEKRNKIREQNRYDLKTAGPQSQLLAGIVVDKPPSTMQFEDDDHGPPAPPNPFSHLTEGELEEYKRTIERKQQGLEDAEQELLSDDASSVSQIQSQTQSPQNVPEKLEENHELFSKSFISMEVPVMVVNGKDDMHDVEDELAKRVSRLSTSTTIENIEITIKSPEKIEEVLSPEGSPSKSPSKKKKKFRTPSFLKKNKKKEKVEA [ADD3]	-4.93	-3.64	0.481	-0.181	55.9 °C	55.5 °C
MSSEDREAQEDELLALASIYDGDEFRKAESVQGGETRIYLDLPQNFKIFVSGNSNECLQNSGFEYTICFLPPLVLNFELPPDYPSSSPPSFTLSGKWLSPTQLSALCKHLDNLWEEHRGSVVLFAWMQFLKEETLAYLNIVSPFELKIGSQKKVQRRTAQASPNTELDFGGAAGSDVDQEEIVDERAVQDVESLSNLIQEILDFDQAQQIKCFNSKLFLCSICFCEKLGSECMYFLECRHVYCKACLKDYFEIQIRDGQVQCLNCPEPKCPSVATPGQVKELVEAELFARYDRLLLQSSLDLMADVVYCPRPCCQLPVMQEPGCTMGICSSCNFAFCTLCRLTYHGVSPCKVTAEKLMDLRNEYLQADEANKRLLDQRYGKRVIQKALEEMESKEWLEKNSKSCPCCGTPIEKLDGCNKMTCTGCMQYFCWICMGSLSRANPYKHFNDPGSPCFNRLFYAVDVDDDIWEDEVED [RNF14]	0.508	1.14	-0.286	0.119	49.6 °C	49.1 °C
MSSFSESALEKKLSELSNSQQSVQTLSLWLIHHRKHAGPIVSVWHRELRKAKSNRKLTFLYLANDVIQNSKRKGPEFTREFESVLVDAFSHVAREADEGCKKPLERLLNIWQERSVYGGEFIQQLKLSMEDSKSPPPKATEEKKSLKRTFQQIQEEEDDDYPGSYSPQDPSAGPLLTEELIKALQDLENAASGDATVRQKIASLPQEVQDVSLLEKITDKEAAERLSKTVDEACLLLAEYNGRLAAELEDRRQLARMLVEYTQNQKDVLSEKEKKLEEYKQKLARVTQVRKELKSHIQSLPDLSLLPNVTGGLAPLPSAGDLFSTD [RPRD1B]	-0.302	0.484	0.00357	0.562	49.5 °C	50 °C
MSSGAPQKSSPMASGAEETPGFLDTLLQDFPALLNPEDPLPWKAPGTVLSQEEVEGELAELAMGFLGSRKAPPPLAAALAHEAVSQLLQTDLSEFRKLPREEEEEEEDDDEEEKAPVTLLDAQSLAQSFFNRLWEVAGQWQKQVPLAARASQRQWLVSIHAIRNTRRKMEDRHVSLPSFNQLFGLSDPVNRAYFAVFDGHGGVDAARYAAVHVHTNAARQPELPTDPEGALREAFRRTDQMFLRKAKRERLQSGTTGVCALIAGATLHVAWLGDSQVILVQQGQVVKLMEPHRPERQDEKARIEALGGFVSHMDCWRVNGTLAVSRAIGDVFQKPYVSGEADAASRALTGSEDYLLLACDGFFDVVPHQEVVGLVQSHLTRQQGSGLRVAEELVAAARERGSHDNITVMVVFLRDPQELLEGGNQGEGDPQAEGRRQDLPSSLPEPETQAPPRS [PPM1F]	-0.813	-0.95	-0.0364	0.464	51.8 °C	52.7 °C
MSSGIHVALVTGGNKGIGLAIVRDLCRLFSGDVVLTARDVTRGQAAVQQLQAEGLSPRFHQLDIDDLQSIRALRDFLRKEYGGLDVLVNNAGIAFKVADPTPFHIQAEVTMKTNFFGTRDVCTELLPLIKPQGRVVNVSSIMSVRALKSCSPELQQKFRSETITEEELVGLMNKFVEDTKKGVHQKEGWPSSAYGVTKIGVTVLSRIHARKLSEQRKGDKILLNACCPGWVRTDMAGPKATKSPEEGAETPVYLALLPPDAEGPHGQFVSEKRVEQW [CBR1]	-1.36	-0.874	-0.0843	0.626	53.2 °C	53 °C
MSSGKSARYNRFSGGPSNLPTPDVTTGTRMETTFGPAFSAVTTITKADGTSTYKQHCRTPSSSSTLAYSPRDEEDSMPPISTPRRSDSAISVRSLHSESSMSLRSTFSLPEEEEEPEPLVFAEQPSVKLCCQLCCSVFKDPVITTCGHTFCRRCALKSEKCPVDNVKLTVVVNNIAVAEQIGELFIHCRHGCRVAGSGKPPIFEVDPRGCPFTIKLSARKDHEGSCDYRPVRCPNNPSCPPLLRMNLEAHLKECEHIKCPHSKYGCTFIGNQDTYETHLETCRFEGLKEFLQQTDDRFHEMHVALAQKDQEIAFLRSMLGKLSEKIDQLEKSLELKFDVLDENQSKLSEDLMEFRRDASMLNDELSHINARLNMGILGSYDPQQIFKCKGTFVGHQGPVWCLCVYSMGDLLFSGSSDKTIKVWDTCTTYKCQKTLEGHDGIVLALCIQGCKLYSGSADCTIIVWDIQNLQKVNTIRAHDNPVCTLVSSHNVLFSGSLKAIKVWDIVGTELKLKKELTGLNHWVRALVAAQSYLYSGSYQTIKIWDIRTLDCIHVLQTSGGSVYSIAVTNHHIVCGTYENLIHVWDIESKEQVRTLTGHVGTVYALAVISTPDQTKVFSASYDRSLRVWSMDNMICTQTLLRHQGSVTALAVSRGRLFSGAVDSTVKVWTC [TRAF7]	-0.465	0.328	-0.0251	-0.171	50.5 °C	–
MSSKGSVVLAYSGGLDTSCILVWLKEQGYDVIAYLANIGQKEDFEEARKKALKLGAKKVFIEDVSREFVEEFIWPAIQSSALYEDRYLLGTSLARPCIARKQVEIAQREGAKYVSHGATGKGNDQVRFELSCYSLAPQIKVIAPWRMPEFYNRFKGRNDLMEYAKQHGIPIPVTPKNPWSMDENLMHISYEAGILENPKNQAPPGLYTKTQDPAKAPNTPDILEIEFKKGVPVKVTNVKDGTTHQTSLELFMYLNEVAGKHGVGRIDIVENRFIGMKSRGIYETPAGTILYHAHLDIEAFTMDREVRKIKQGLGLKFAELVYTGFWHSPECEFVRHCIAKSQERVEGKVQVSVLKGQVYILGRESPLSLYNEELVSMNVQGDYEPTDATGFININSLRLKEYHRLQSKVTAK [ASS1]	-0.511	-0.833	-0.0958	0.145	54.3 °C	54.1 °C
MSSLIRRVISTAKAPGAIGPYSQAVLVDRTIYISGQIGMDPSSGQLVSGGVAEEAKQALKNMGEILKAAGCDFTNVVKTTVLLADINDFNTVNEIYKQYFKSNFPARAAYQVAALPKGSRIEIEAVAIQGPLTTASL [HRSP12]	-1.03	-1.85	0.158	0.213	55.4 °C	55 °C
MSSPASTPSRRGSRRGRATPAQTPRSEDARSSPSQRRRGEDSTSTGELQPMPTSPGVDLQSPAAQDVLFSSPPQMHSSAIPLDFDVSSPLTYGTPSSRVEGTPRSGVRGTPVRQRPDLGSAQKGLQVDLQSDGAAAEDIVASEQSLGQKLVIWGTDVNVAACKENFQRFLQRFIDPLAKEEENVGIDITEPLYMQRLGEINVIGEPFLNVNCEHIKSFDKNLYRQLISYPQEVIPTFDMAVNEIFFDRYPDSILEHQIQVRPFNALKTKNMRNLNPEDIDQLITISGMVIRTSQLIPEMQEAFFQCQVCAHTTRVEMDRGRIAEPSVCGRCHTTHSMALIHNRSLFSDKQMIKLQESPEDMPAGQTPHTVILFAHNDLVDKVQPGDRVNVTGIYRAVPIRVNPRVSNVKSVYKTHIDVIHYRKTDAKRLHGLDEEAEQKLFSEKRVELLKELSRKPDIYERLASALAPSIYEHEDIKKGILLQLFGGTRKDFSHTGRGKFRAEINILLCGDPGTSKSQLLQYVYNLVPRGQYTSGKGSSAVGLTAYVMKDPETRQLVLQTGALVLSDNGICCIDEFDKMNESTRSVLHEVMEQQTLSIAKAGIICQLNARTSVLAAANPIESQWNPKKTTIENIQLPHTLLSRFDLIFLLLDPQDEAYDRRLAHHLVALYYQSEEQAEEELLDMAVLKDYIAYAHSTIMPRLSEEASQALIEAYVDMRKIGSSRGMVSAYPRQLESLIRLAEAHAKVRLSNKVEAIDVEEAKRLHREALKQSATDPRTGIVDISILTTGMSATSRKRKEELAEALKKLILSKGKTPALKYQQLFEDIRGQSDIAITKDMFEEALRALADDDFLTVTGKTVRLL [MCM4]	0.944	0.88	-0.0425	0.157	50.6 °C	50.4 °C
MSSRKQGSQPRGQQSAEEENFKKPTRSNMQRSKMRGASSGKKTAGPQQKNLEPALPGRWGGRSAENPPSGSVRKTRKNKQKTPGNGDGGSTSEAPQPPRKKRARADPTVESEEAFKNRMEVKVKIPEELKPWLVEDWDLVTRQKQLFQLPAKKNVDAILEEYANCKKSQGNVDNKEYAVNEVVAGIKEYFNVMLGTQLLYKFERPQYAEILLAHPDAPMSQVYGAPHLLRLFVRIGAMLAYTPLDEKSLALLLGYLHDFLKYLAKNSASLFTASDYKVASAEYHRKAL [MORF4L2]	0.948	0.257	0.484	0.0399	52.9 °C	52.1 °C

Source: the supplement of paper PMC5998384
